Measured values reported in patent US20210238260A1.

target: antithrombin III (plasma purified human AT-III), in complex with unfractionated heparin (human) (UniProt P01008); assay: AT-III/UFH inhibition of FIXa; residual activity on Pefafluor FIXa substrate, varied incubation time

With “FIXa D104N/K106S/I251S/R318Y/R338E/R403E/E410N (from UniProt P00740 47-191; P00740 227-461) (enzyme)” as the substance, how does the kapp (apparent second-order rate constant for inhibition) read?
Its kapp (apparent second-order rate constant for inhibition) is 5700 M⁻¹ s⁻¹.

How did the kapp (apparent second-order rate constant for inhibition) turn out when “FIXa K247N/N249S/R318Y/R338E/R403E/E410N (from UniProt P00740 47-191; P00740 227-461) (enzyme)” was run?
Its kapp (apparent second-order rate constant for inhibition) is 2000 M⁻¹ s⁻¹.

How did the kapp (apparent second-order rate constant for inhibition) turn out when “FIXa K228N/R318Y/R338E/R403E/E410N (from UniProt P00740 47-191; P00740 227-461) (enzyme)” was run?
The kapp (apparent second-order rate constant for inhibition) was 2900 M⁻¹ s⁻¹.

With “FIXa Y155F/N346D (from UniProt P00740 47-191; P00740 227-461) (enzyme)” as the substance, how does the kapp (apparent second-order rate constant for inhibition) read?
The kapp (apparent second-order rate constant for inhibition) was 4e+06 M⁻¹ s⁻¹.

With “FIXa D104N/K106S/Y155F/R318Y/R338E/R403E/E410N (from UniProt P00740 47-191; P00740 227-461) (enzyme)” as the substance, how does the kapp (apparent second-order rate constant for inhibition) read?
The kapp (apparent second-order rate constant for inhibition) was 2900 M⁻¹ s⁻¹.

For “FIXa R318Y/R338E/R403E/E410S (from UniProt P00740 47-191; P00740 227-461) (enzyme)”, which kapp (apparent second-order rate constant for inhibition) is on record?
Its kapp (apparent second-order rate constant for inhibition) is 1600 M⁻¹ s⁻¹.

With “FIXa K228N/R318Y/E410N (from UniProt P00740 47-191; P00740 227-461) (enzyme)” as the substance, how does the kapp (apparent second-order rate constant for inhibition) read?
The kapp (apparent second-order rate constant for inhibition) was 1.9e+06 M⁻¹ s⁻¹.

With “FIXa I251S/R318Y/R338E/E410N (from UniProt P00740 47-191; P00740 227-461) (enzyme)” as the substance, how does the kapp (apparent second-order rate constant for inhibition) read?
Its kapp (apparent second-order rate constant for inhibition) is 240000 M⁻¹ s⁻¹.

“FIXa Y345T (from UniProt P00740 47-191; P00740 227-461) (enzyme)” was tested. Which kapp (apparent second-order rate constant for inhibition) did it give?
The kapp (apparent second-order rate constant for inhibition) was 1.8e+06 M⁻¹ s⁻¹.

How did the kapp (apparent second-order rate constant for inhibition) turn out when “FIXa T343R/Y345T (from UniProt P00740 47-191; P00740 227-461) (enzyme)” was run?
The kapp (apparent second-order rate constant for inhibition) was 5e+06 M⁻¹ s⁻¹.

Which kapp (apparent second-order rate constant for inhibition) does the source give for “FIXa T343R (from UniProt P00740 47-191; P00740 227-461) (enzyme)” here?
The kapp (apparent second-order rate constant for inhibition) was 4.2e+06 M⁻¹ s⁻¹.

How did the kapp (apparent second-order rate constant for inhibition) turn out when “FIXa A103N/N105S/K247N/N249S/R318Y/R338E/R403E/E410N (from UniProt P00740 47-191; P00740 227-461) (enzyme)” was run?
Its kapp (apparent second-order rate constant for inhibition) is 1700 M⁻¹ s⁻¹.

Which kapp (apparent second-order rate constant for inhibition) does the source give for “FIXa N346Y (from UniProt P00740 47-191; P00740 227-461) (enzyme)” here?
Its kapp (apparent second-order rate constant for inhibition) is 840000 M⁻¹ s⁻¹.

target: Antithrombin III (ATIII) (human) (UniProt P01008); assay: inhibition of FIXa by ATIII, residual FIXa activity; heparin not given

With “BeneFIX Coagulation Factor IX (Recombinant) (activated, FIXa) (from UniProt P00740 47-191; P00740 227-461) (enzyme)” as the substance, how does the ATIII Kapp (second-order rate constant of inhibition) read?
The ATIII Kapp (second-order rate constant of inhibition) was 1.6e+07 M⁻¹ s⁻¹.

With “WT-recombinant FIX (native amino-acid sequence, made in the Sponsor's laboratory; activated, FIXa) (from UniProt P00740 47-191; P00740 227-461) (enzyme)” as the substance, how does the ATIII Kapp (second-order rate constant of inhibition) read?
Its ATIII Kapp (second-order rate constant of inhibition) is 2.4e+07 M⁻¹ s⁻¹.

With “FIX of SEQ ID NO: 394, with the replacements R318Y/R338E/T343R (activated, FIXa) (from UniProt P00740 47-191; P00740 227-461) (enzyme)” as the substance, how does the ATIII Kapp (second-order rate constant of inhibition) read?
The ATIII Kapp (second-order rate constant of inhibition) was 1.1e+06 M⁻¹ s⁻¹.

target: plasma purified human antithrombin III (AT-III), in complex with unfractionated heparin (UFH) (human) (UniProt P01008); assay: inhibition of FIXa by AT-III/UFH, residual activity on Mesyl-D-CHG-Gly-Arg-AMC, pseudo-first-order

For “FIXa-R338E/T343R/E410N (from UniProt P00740 47-191; P00740 227-461) (enzyme)”, which kapp (apparent second-order rate constant for inhibition) is on record?
The kapp (apparent second-order rate constant for inhibition) was 2e+07 M⁻¹ s⁻¹.

“FIXa-Y155F/R338E/T343R/E410N (from UniProt P00740 47-191; P00740 227-461) (enzyme)” was tested. Which kapp (apparent second-order rate constant for inhibition) did it give?
The kapp (apparent second-order rate constant for inhibition) was 1.3e+07 M⁻¹ s⁻¹.

For “FIXa-K228N/R318Y/R338E/T343R/R403E/E410N (from UniProt P00740 47-191; P00740 227-461) (enzyme)”, which kapp (apparent second-order rate constant for inhibition) is on record?
Its kapp (apparent second-order rate constant for inhibition) is 7100 M⁻¹ s⁻¹.

How did the kapp (apparent second-order rate constant for inhibition) turn out when “FIXa-Y155F/R318Y/T343R/R403E (from UniProt P00740 47-191; P00740 227-461) (enzyme)” was run?
The kapp (apparent second-order rate constant for inhibition) was 11000 M⁻¹ s⁻¹.

For “FIXa-K247N/N249S/R318Y/T343R/R403E (from UniProt P00740 47-191; P00740 227-461) (enzyme)”, which kapp (apparent second-order rate constant for inhibition) is on record?
The kapp (apparent second-order rate constant for inhibition) was 9800 M⁻¹ s⁻¹.

How did the kapp (apparent second-order rate constant for inhibition) turn out when “FIXa-Y155F/K247N/N249S/R403E/E410N (from UniProt P00740 47-191; P00740 227-461) (enzyme)” was run?
Its kapp (apparent second-order rate constant for inhibition) is 130000 M⁻¹ s⁻¹.

How did the kapp (apparent second-order rate constant for inhibition) turn out when “FIXa-Y155F/R318Y/T343R/E410N (from UniProt P00740 47-191; P00740 227-461) (enzyme)” was run?
Its kapp (apparent second-order rate constant for inhibition) is 200000 M⁻¹ s⁻¹.

“FIXa-Y155F/K247N/N249S/R338E/T343R/R403E (from UniProt P00740 47-191; P00740 227-461) (enzyme)” was tested. Which kapp (apparent second-order rate constant for inhibition) did it give?
Its kapp (apparent second-order rate constant for inhibition) is 44000 M⁻¹ s⁻¹.

Which kapp (apparent second-order rate constant for inhibition) does the source give for “FIXa-R318Y/T343R/E410N (from UniProt P00740 47-191; P00740 227-461) (enzyme)” here?
The kapp (apparent second-order rate constant for inhibition) was 1.2e+06 M⁻¹ s⁻¹.

Which kapp (apparent second-order rate constant for inhibition) does the source give for “FIXa-Y155F/K247N/N249S/R318Y/R338E/T343R (from UniProt P00740 47-191; P00740 227-461) (enzyme)” here?
The kapp (apparent second-order rate constant for inhibition) was 370000 M⁻¹ s⁻¹.

Which kapp (apparent second-order rate constant for inhibition) does the source give for “FIXa-K228N/K247N/N249S/R318Y/R338E/T343R/E410N (from UniProt P00740 47-191; P00740 227-461) (enzyme)” here?
Its kapp (apparent second-order rate constant for inhibition) is 630000 M⁻¹ s⁻¹.

Which kapp (apparent second-order rate constant for inhibition) does the source give for “FIXa-Y155F/T343R/R403E/E410N (from UniProt P00740 47-191; P00740 227-461) (enzyme)” here?
Its kapp (apparent second-order rate constant for inhibition) is 880000 M⁻¹ s⁻¹.

How did the kapp (apparent second-order rate constant for inhibition) turn out when “FIXa-K247N/N249S/R338E/T343R/R403E (from UniProt P00740 47-191; P00740 227-461) (enzyme)” was run?
Its kapp (apparent second-order rate constant for inhibition) is 50000 M⁻¹ s⁻¹.

With “FIXa-K228N/K247N/N249S/R318Y/R338E/T343R/R403E (from UniProt P00740 47-191; P00740 227-461) (enzyme)” as the substance, how does the kapp (apparent second-order rate constant for inhibition) read?
The kapp (apparent second-order rate constant for inhibition) was 1000 M⁻¹ s⁻¹.

Which kapp (apparent second-order rate constant for inhibition) does the source give for “FIXa-K247N/N249S/R318Y/R338E/T343R/E410N (from UniProt P00740 47-191; P00740 227-461) (enzyme)” here?
Its kapp (apparent second-order rate constant for inhibition) is 210000 M⁻¹ s⁻¹.

“FIXa-K247N/N249S/R318Y/R338E/T343R (from UniProt P00740 47-191; P00740 227-461) (enzyme)” was tested. Which kapp (apparent second-order rate constant for inhibition) did it give?
Its kapp (apparent second-order rate constant for inhibition) is 320000 M⁻¹ s⁻¹.

Which kapp (apparent second-order rate constant for inhibition) does the source give for “FIXa-K247N/N249S/R318Y/T343R/E410N (from UniProt P00740 47-191; P00740 227-461) (enzyme)” here?
Its kapp (apparent second-order rate constant for inhibition) is 49000 M⁻¹ s⁻¹.

With “FIXa-Y155F/K247N/N249S/T343R/R403E/E410N (from UniProt P00740 47-191; P00740 227-461) (enzyme)” as the substance, how does the kapp (apparent second-order rate constant for inhibition) read?
Its kapp (apparent second-order rate constant for inhibition) is 620000 M⁻¹ s⁻¹.

Which kapp (apparent second-order rate constant for inhibition) does the source give for “FIXa-K247N/N249S/R318Y/T343R/R403E/E410N (from UniProt P00740 47-191; P00740 227-461) (enzyme)” here?
Its kapp (apparent second-order rate constant for inhibition) is 25000 M⁻¹ s⁻¹.

With “FIXa-R318Y/R338E/T343R (from UniProt P00740 47-191; P00740 227-461) (enzyme)” as the substance, how does the kapp (apparent second-order rate constant for inhibition) read?
The kapp (apparent second-order rate constant for inhibition) was 1.8e+06 M⁻¹ s⁻¹.

“FIXa-Y155F/K247N/N249S/R318Y/T343R/R403E (from UniProt P00740 47-191; P00740 227-461) (enzyme)” was tested. Which kapp (apparent second-order rate constant for inhibition) did it give?
Its kapp (apparent second-order rate constant for inhibition) is 12000 M⁻¹ s⁻¹.

For “FIXa-Y155F/K247N/N249S/R338E/E410N (from UniProt P00740 47-191; P00740 227-461) (enzyme)”, which kapp (apparent second-order rate constant for inhibition) is on record?
The kapp (apparent second-order rate constant for inhibition) was 2.9e+06 M⁻¹ s⁻¹.

For “FIXa-Y155F/K247N/N249S/R318Y/T343R/R403E/E410N (from UniProt P00740 47-191; P00740 227-461) (enzyme)”, which kapp (apparent second-order rate constant for inhibition) is on record?
The kapp (apparent second-order rate constant for inhibition) was 28000 M⁻¹ s⁻¹.

For “FIXa-K247N/N249S/R338E/T343R/E410N (from UniProt P00740 47-191; P00740 227-461) (enzyme)”, which kapp (apparent second-order rate constant for inhibition) is on record?
The kapp (apparent second-order rate constant for inhibition) was 1.4e+07 M⁻¹ s⁻¹.

With “FIXa-K228N/K247N/N249S/R318Y/T343R/R403E/E410N (from UniProt P00740 47-191; P00740 227-461) (enzyme)” as the substance, how does the kapp (apparent second-order rate constant for inhibition) read?
Its kapp (apparent second-order rate constant for inhibition) is 17000 M⁻¹ s⁻¹.

How did the kapp (apparent second-order rate constant for inhibition) turn out when “FIXa-Y155F/K247N/N249S/R318Y/T343R/E410N (from UniProt P00740 47-191; P00740 227-461) (enzyme)” was run?
The kapp (apparent second-order rate constant for inhibition) was 360000 M⁻¹ s⁻¹.
